According to US20250277059A1, “ANTIBODY USED TO TREAT CORONAVIRUS INFECTION” (priority 2022, published 2025):

B1: 752_1 human IgG4 chimeric antibody (antibody, V domains shown)
VH: QVQLQQSGAELARPGASVKLSCKASGYTFTSCGISWVKQRTGQGLEWIGEIYPRGGNTYYNEKFKGKATLTADKSSSTAYMELRSLTSEDSAVYFCARENGNYDPLFAYWGQGTLVTVSA
VL: DIQMTQSPSSLSASLGGKVTITCKASQDINKYIAWYQHKPGKGPRLLIHYTSTLQPGIPSRFSGSGSGRDYSFSIYNLEPEDIATYYCLQYYNLWTFGGGTKLEIK
B2: humanized 752-1 IgG4 (S108P) prototype #3 (antibody, V domains shown)
VH: QVQLQQSGTGLARPGASVKLSCKASGYTFTSCGISWVTQRAGQGLEWIGEIYPRGGNTYYNEKFKGKATLTADKSSSSAYMELRGLTAEDSAVYFCARENGNYDPLFAYWGQGTTLTVSS
VL: DIQMTQSPSSLSASVGDRVTITCKASQDINKYIAWYQQKPGKAPKLLIYYTSTLQPGVPSRFSGSGSGTDFTFTISSLQPEDIATYYCLQYYNLWTFGGGTKVEIK
notes: also called humanized #3; hu #3
B3: humanized 2228-15 IgG4 (S108P) prototype #2 (antibody, V domains shown)
VH: QVQLVQSGAEVKKPGASVKVSCKASGYTFTDYYINWVRQAPGQGLEWMGWIFPGSGSSYYNAIFKGRVTMTRDTSISTAYMELSRLRSDDTAVYYCARGDFGNFGGFFTYWGQGTLVTVSS
VL: DIVMTQSPDSLAVSLGERATINCRASKSVSTSGYSFMHWYQQKPGQPPKLLIYLASNLESGVPDRFSGSGSGTDFTLTIRPLQAEDVAVYYCQHSRELPLTFGQGTKLEIK
notes: also called hu #2
B4: 2228_15 human IgG4 chimeric antibody (antibody, V domains shown)
VH: QVQLQQSGPELVKPGTSVKISCKASGYTFTDYYINWVKQRPGQGLEWIGWIFPGSGSSYYNAIFKGKATLTVDTSSNTAHMSLSSLTSDDSAVYFCARGDFGNFGGFFTYWGQGTLVTVSA
VL: DVVVTQSPASLAVSLGQRATISCRASKSVSTSGYSFMHWYQQKPGQPPKLLIYLASNLESGVPARFSGSGSGTDFILNIHPVEEEDAATYYCQHSRELPLTFGAGTKLELK
B5: humanized 752-1 IgG4 (S108P) prototype #1 (antibody, V domains shown)
VH: QVQLVQSGAEVKKPGASVKVSCKASGYTFTSCGISWVRQAPGQGLEWMGEIYPRGGNTYYNEKFKGRVTMTTDTSTSTAYMELRSLRSDDTAVYYCARENGNYDPLFAYWGQGTLVTVSS
VL: DIQMTQSPSSLSASVGDRVTITCKASQDINKYIAWYQQKPGKAPKLLIYYTSTLQPGVPSRFSGSGSGTDFTFTISSLQPEDIATYYCLQYYNLWTFGGGTKVEIK
notes: also called humanized #1; hu #1
B6: humanized 752-1 IgG4 (S108P) prototype #2 (antibody, V domains shown)
VH: QVQLVQSGAEVKKPGASVKVSCKASGYTFTSCGISWVRQAPGQGLEWMGEIYPRGGNTYYNEKFKGRVTMTTDTSTSTAYMELRSLRSDDTAVYYCARENGNYDPLFAYWGQGTLVTVSS
VL: DIQMTQSPSSLSASVGDRVTITCKASQDINKYIAWYQQKPGKAPKLLIHYTSTLQPGVPSRFSGSGSGTDFTFTISSLQPEDIATYYCLQYYNLWTFGGGTKVEIK
notes: also called humanized #2; hu #2
B7: recombinant 2228-15 mIgG (antibody, V domains shown)
VH: QVQLQQSGPELVKPGTSVKISCKASGYTFTDYYINWVKQRPGQGLEWIGWIFPGSGSSYYNAIFKGKATLTVDTSSNTAHMSLSSLTSDDSAVYFCARGDFGNFGGFFTYWGQGTLVTVSA
VL: DVVVTQSPASLAVSLGQRATISCRASKSVSTSGYSFMHWYQQKPGQPPKLLIYLASNLESGVPARFSGSGSGTDFILNIHPVEEEDAATYYCQHSRELPLTFGAGTKLELK
B8: humanized 752-1 IgG4 (S108P) prototype #4: humanized 752 antibody, 752_hVH-2 (SEQ ID NO: 129) and 752_hVL-2 (SEQ ID NO: 119), human IgG4 (S108P) (antibody, V domains shown)
VH: QVQLQQSGTGLARPGASVKLSCKASGYTFTSCGISWVTQRAGQGLEWIGEIYPRGGNTYYNEKFKGKATLTADKSSSSAYMELRGLTAEDSAVYFCARENGNYDPLFAYWGQGTTLTVSS
VL: DIQMTQSPSSLSASVGDRVTITCKASQDINKYIAWYQQKPGKAPKLLIHYTSTLQPGVPSRFSGSGSGTDFTFTISSLQPEDIATYYCLQYYNLWTFGGGTKVEIK
B9: humanized 752-1 IgG4 (S108P) prototype #3: humanized 752 antibody, 752_hVH-2 (SEQ ID NO: 129) and 752_hVL-1 (SEQ ID NO: 114), human IgG4 (S108P) (antibody, V domains shown)
VH: QVQLQQSGTGLARPGASVKLSCKASGYTFTSCGISWVTQRAGQGLEWIGEIYPRGGNTYYNEKFKGKATLTADKSSSSAYMELRGLTAEDSAVYFCARENGNYDPLFAYWGQGTTLTVSS
VL: DIQMTQSPSSLSASVGDRVTITCKASQDINKYIAWYQQKPGKAPKLLIYYTSTLQPGVPSRFSGSGSGTDFTFTISSLQPEDIATYYCLQYYNLWTFGGGTKVEIK
modifications: human IgG4 S108P constant region
B10: humanized 2228-15 IgG4 (S108P) prototype #4: humanized 2228 antibody, 2228_hVH-2 (SEQ ID NO: 149) and 2228_hVL-2 (SEQ ID NO: 139), human IgG4 (S108P) (antibody, V domains shown)
VH: EIQLVQSGAEVKKPGSSVKVSCKASGYTFTDYYINWMRQAPGQGLEWIGWIFPGSGSSYYNAIFKGRATLTVDTSTNTAYMELSSLRSEDTAFYFCARGDFGNFGGFFTYWGQGTLVTVSS
VL: DIVMTQSPDSLAVSLGERATINCRASKSVSTSGYSFMHWYQQKPGQPPKLLIYLASNLESGVPDRFSGSGSGTDFTLTIRPLQAEDVAVYYCQHSRELPLTFGQGTKLEIK
modifications: human IgG4 S108P constant region
B11: humanized 2228-15 IgG4 (S108P) prototype #1: humanized 2228 antibody, 2228_hVH-1 (SEQ ID NO: 144) and 2228_hVL-1 (SEQ ID NO: 134), human IgG4 (S108P) (antibody, V domains shown)
VH: QVQLVQSGAEVKKPGASVKVSCKASGYTFTDYYINWVRQAPGQGLEWMGWIFPGSGSSYYNAIFKGRVTMTRDTSISTAYMELSRLRSDDTAVYYCARGDFGNFGGFFTYWGQGTLVTVSS
VL: DVVMTQSPLSLPVTLGQPASISCRASKSVSTSGYSFMHWFQQRPGQSPRRLIYLASNLESGVPDRFSGSGSGTDFTLKISRVEAEDVGVYYCQHSRELPLTFGGGTKVEIK
modifications: human IgG4 S108P constant region
B12: humanized 2228-15 IgG4 (S108P) prototype #2: humanized 2228 antibody, 2228_hVH-1 (SEQ ID NO: 144) and 2228_hVL-2 (SEQ ID NO: 139), human IgG4 (S108P) (antibody, V domains shown)
VH: QVQLVQSGAEVKKPGASVKVSCKASGYTFTDYYINWVRQAPGQGLEWMGWIFPGSGSSYYNAIFKGRVTMTRDTSISTAYMELSRLRSDDTAVYYCARGDFGNFGGFFTYWGQGTLVTVSS
VL: DIVMTQSPDSLAVSLGERATINCRASKSVSTSGYSFMHWYQQKPGQPPKLLIYLASNLESGVPDRFSGSGSGTDFTLTIRPLQAEDVAVYYCQHSRELPLTFGQGTKLEIK
modifications: human IgG4 S108P constant region
B13: humanized 2228-15 IgG4 (S108P) prototype #3: humanized 2228 antibody, 2228_hVH-2 (SEQ ID NO: 149) and 2228_hVL-1 (SEQ ID NO: 134), human IgG4 (S108P) (antibody, V domains shown)
VH: EIQLVQSGAEVKKPGSSVKVSCKASGYTFTDYYINWMRQAPGQGLEWIGWIFPGSGSSYYNAIFKGRATLTVDTSTNTAYMELSSLRSEDTAFYFCARGDFGNFGGFFTYWGQGTLVTVSS
VL: DVVMTQSPLSLPVTLGQPASISCRASKSVSTSGYSFMHWFQQRPGQSPRRLIYLASNLESGVPDRFSGSGSGTDFTLKISRVEAEDVGVYYCQHSRELPLTFGGGTKVEIK
modifications: human IgG4 S108P constant region
B14: humanized 752-1 IgG4 (S108P) prototype #1: humanized 752 antibody, 752_hVH-1 (SEQ ID NO: 124) and 752_hVL-1 (SEQ ID NO: 114), human IgG4 (S108P) (antibody, V domains shown)
VH: QVQLVQSGAEVKKPGASVKVSCKASGYTFTSCGISWVRQAPGQGLEWMGEIYPRGGNTYYNEKFKGRVTMTTDTSTSTAYMELRSLRSDDTAVYYCARENGNYDPLFAYWGQGTLVTVSS
VL: DIQMTQSPSSLSASVGDRVTITCKASQDINKYIAWYQQKPGKAPKLLIYYTSTLQPGVPSRFSGSGSGTDFTFTISSLQPEDIATYYCLQYYNLWTFGGGTKVEIK
modifications: human IgG4 S108P constant region
B15: humanized 752-1 IgG4 (S108P) prototype #2: humanized 752 antibody, 752_hVH-1 (SEQ ID NO: 124) and 752_hVL-2 (SEQ ID NO: 119), human IgG4 (S108P) (antibody, V domains shown)
VH: QVQLVQSGAEVKKPGASVKVSCKASGYTFTSCGISWVRQAPGQGLEWMGEIYPRGGNTYYNEKFKGRVTMTTDTSTSTAYMELRSLRSDDTAVYYCARENGNYDPLFAYWGQGTLVTVSS
VL: DIQMTQSPSSLSASVGDRVTITCKASQDINKYIAWYQQKPGKAPKLLIHYTSTLQPGVPSRFSGSGSGTDFTFTISSLQPEDIATYYCLQYYNLWTFGGGTKVEIK
modifications: human IgG4 S108P constant region

target: T1, Human TMPRSS2 expressed on cells (human, UniProt O15393 1-492); assay: not given; settings: not given
T1 construct: also called TMPRSS2 expressing cells; Daudi-TMPRSS2 transfectant
T1 sequence (O15393 whole entry): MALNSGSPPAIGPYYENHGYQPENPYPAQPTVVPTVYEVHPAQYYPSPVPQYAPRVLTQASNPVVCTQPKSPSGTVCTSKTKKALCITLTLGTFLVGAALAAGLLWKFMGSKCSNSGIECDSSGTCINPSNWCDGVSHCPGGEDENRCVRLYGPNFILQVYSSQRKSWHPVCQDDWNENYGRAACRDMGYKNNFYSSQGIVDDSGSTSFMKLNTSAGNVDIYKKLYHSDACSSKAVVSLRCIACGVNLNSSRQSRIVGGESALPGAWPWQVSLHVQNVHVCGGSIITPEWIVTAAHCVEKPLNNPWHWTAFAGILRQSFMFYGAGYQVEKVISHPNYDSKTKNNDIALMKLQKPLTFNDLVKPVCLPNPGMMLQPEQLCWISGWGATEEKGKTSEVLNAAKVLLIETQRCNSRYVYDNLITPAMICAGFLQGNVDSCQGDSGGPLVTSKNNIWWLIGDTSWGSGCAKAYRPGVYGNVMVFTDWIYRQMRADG

Point of comparison: B2, “APC median at 3 µg/ml” value 1560. Against it:
- B1 — higher, 2040
- B3 — higher, 2540
- B4 — higher, 2370
- B5 — lower, 1450
- B6 — lower, 1410

target: T2, Human TMPRSS2 recombinant protein, extracellular region (N-terminal His tag, C-terminal Strep-tag II) (human, UniProt O15393 106-492); assay: SPR (BIACore); settings: not given
T2 construct: also called Human TMPRSS2 recombinant proteins; extracellular region of human TMPRSS2
T2 sequence (O15393 other isoform, or with tags, fused parts or gaps limits assumed): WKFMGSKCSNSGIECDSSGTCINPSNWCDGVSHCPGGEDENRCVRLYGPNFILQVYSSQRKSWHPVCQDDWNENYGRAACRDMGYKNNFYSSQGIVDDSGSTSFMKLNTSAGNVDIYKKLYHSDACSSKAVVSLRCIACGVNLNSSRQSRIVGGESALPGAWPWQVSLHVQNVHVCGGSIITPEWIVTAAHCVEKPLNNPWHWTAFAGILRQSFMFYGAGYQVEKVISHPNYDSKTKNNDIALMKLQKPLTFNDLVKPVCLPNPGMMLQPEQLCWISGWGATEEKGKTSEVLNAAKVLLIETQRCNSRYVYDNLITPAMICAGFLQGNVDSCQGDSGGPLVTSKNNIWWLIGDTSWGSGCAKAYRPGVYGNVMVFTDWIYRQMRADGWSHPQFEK

Point of comparison: B7, Kd 3.72 nM. Against it:
- B2 — 1.8-fold lower, 2.11 nM
- B5 — 6.1-fold higher, 22.6 nM
- B6 — 3.6-fold higher, 13.4 nM

Point of comparison: B5, koff 0.00932 s⁻¹. Against it:
- B2 — 2-fold lower, 0.00469 s⁻¹
- B6 — 1.6-fold higher, 0.0152 s⁻¹

Point of comparison: B2, kon 2.22e+06 M⁻¹ s⁻¹. Against it:
- B5 — 5.4-fold lower, 412000 M⁻¹ s⁻¹
- B6 — 2-fold lower, 1.13e+06 M⁻¹ s⁻¹

target: human TMPRSS2 (Homo sapiens, UniProt O15393); assay: BIACore binding assay of anti-TMPRSS2 antibodies; settings: Table 8, recombinant and humanized antibodies
Sequence (O15393 106-492 limits assumed): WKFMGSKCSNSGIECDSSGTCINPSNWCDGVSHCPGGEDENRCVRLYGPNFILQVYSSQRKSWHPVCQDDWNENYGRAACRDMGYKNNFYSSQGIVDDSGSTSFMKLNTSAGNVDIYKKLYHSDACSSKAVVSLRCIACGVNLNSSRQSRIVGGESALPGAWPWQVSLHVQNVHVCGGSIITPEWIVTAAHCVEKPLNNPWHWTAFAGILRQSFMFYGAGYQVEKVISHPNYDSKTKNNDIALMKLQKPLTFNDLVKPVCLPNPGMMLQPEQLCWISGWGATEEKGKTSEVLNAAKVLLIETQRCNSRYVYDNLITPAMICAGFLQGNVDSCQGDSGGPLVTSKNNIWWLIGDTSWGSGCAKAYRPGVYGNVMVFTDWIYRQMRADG

Point of comparison: B12, “ka” value 731000 M⁻¹ s⁻¹. Against it:
- B8 — 3.4-fold higher, 2.5e+06 M⁻¹ s⁻¹
- B9 — 3-fold higher, 2.22e+06 M⁻¹ s⁻¹
- B10 — 2-fold higher, 1.44e+06 M⁻¹ s⁻¹
- B11 — 7.1-fold higher, 5.22e+06 M⁻¹ s⁻¹
- B13 — within 1.5-fold, 825000 M⁻¹ s⁻¹
- B14 — 1.8-fold lower, 412000 M⁻¹ s⁻¹
- B15 — 1.5-fold higher, 1.13e+06 M⁻¹ s⁻¹

Point of comparison: B13, “kd” value 0.000774 s⁻¹. Against it:
- B8 — 7.9-fold higher, 0.006114 s⁻¹
- B9 — 6.1-fold higher, 0.004691 s⁻¹
- B10 — 7.7-fold lower, 0.0001 s⁻¹
- B11 — 83-fold higher, 0.0641 s⁻¹
- B12 — within 1.5-fold, 0.001039 s⁻¹
- B14 — 12-fold higher, 0.009321 s⁻¹
- B15 — 20-fold higher, 0.01521 s⁻¹
